Patent US20230192896A1 (BIOVERATIV THERAPEUTICS, published 2023)

Molecular target: T1, non-activatable Factor X (FXn) (Homo sapiens (Human), UniProt P00742 41-488, single biotin on the C-terminal BioTag)
T1 construct: also called BIIB-FX-015
Assay: BLI; class meaning: paragraph 285

Binder | binding result
BIIB-12-897 (antibody, V domains shown, IgG) VH: QLQLQESGPGLVKPSETLSLTCTVSGGSISSSSYYWGWIRQPPGKGLEWIGSIYYSGSTYYNPSLKSRVTISVDTSKNQFSLKLSSVTAADTAVYYCAREGRTYYGGWFDPWGQGTLVTVSS VL: EIVLTQSPGTLSLSPGERATLSCRASQSVSSSYLAWYQQKPGQAPRLLIYGASSRATGIPDRFSGSGSGTDFTLTISRLEPEDFAVYYCQQDGNYPYTFGGGTKVEIK | binds
BIIB-12-893 (antibody, V domains shown, IgG) VH: QVQLVQSGAEVKKPGASVKVSCKASGYTFTSYYMVWVRQAPGQGLEWMGIINPSGGSTSYAQKFQGRVTMTRDTSTSTVYMELSSLRSEDTAVYYCARDPGRRQYSFYGMDVWGQGTTVTVSS VL: DIQLTQSPSSVSASVGDRVTITCRASQGISSWLAWYQQKPGKAPKLLIYAASSLQSGVPSRFSGSGSGTDFTLTISSLQPEDFATYYCQQAAAFPFTFGGGTKVEIK | binds
BIIB-12-898 (antibody, V domains shown, IgG) VH: QVQLVQSGAEVKKPGASVKVSCKASGYTFTSYYMHWVRQAPGQGLEWMGIINPSGGSTTYAQKFQGRVTMTRDTSTSTVYMELSSLRSEDTAVYYCARGDRMLRAFDPWGQGTLVTVSS VL: DIQLTQSPSTLSASVGDRVTITCRASQAISSWLAWYQQKPGKAPKLLIYDASSLESGVPSRFSGSGSGTEFTLTISSLQPDDFATYYCQQVNRFPFTFGGGTKVEIK | binds
BIIB-12-896 (antibody, V domains shown, IgG) VH: QVQLVQSGAEVKKPGASVKVSCKASGYTFTSYYMHWVRQAPGQGLEWMGIINPSGGSTSYAQKFQGRVTMTRDTSTSTVYMELSSLRSEDTAVYYCARGLGQQRRGFDIWGQGTLVTVSS VL: DIQMTQSPSSVSASVGDRVTITCRASQGISSWLAWYQQKPGKAPKLLIYAASSLQSGVPSRFSGSGSGTDFTLTISSLQPEDFATYYCQQANSFPFTFGGGTKVEIK | binds
BIIB-12-1293 (antibody, V domains shown, IgG) VH: QVQLVQSGAEVKKPGASVKVSCKASGYTFTSYYMHWVRQAPGQGLEWMGIINPSGGSTSYAQKFQGRVTMTRDTSTSTVYMELSSLRSEDTAVYYCARGSGGKHRGLDVWGQGTMVTVSS VL: DIQMTQSPSSVSASVGDRVTITCRASQGISSWLAWYQQKPGKAPKLLIYAASSLQSGVPSRFSGSGSGTDFTLTISSLQPEDFATYYCQQANIFPFTFGGGTKVEIK | binds
BIIB-12-1294 (antibody, V domains shown, IgG) VH: QVQLVQSGAEVKKPGASVKVSCKASGYTFTSYYMHWVRQAPGQGLEWMGIINPSGGSTSYAQKFQGRVTMTRDTSTSTVYMELSSLRSEDTAVYYCARGTRSSRDMDVWGQGTTVTVSS VL: DIQMTQSPSTLSASVGDRVTITCRASQSISSWLAWYQQKPGKAPKLLIYKASSLESGVPSRFSGSGSGTEFTLTISSLQPDDFATYYCQQVNTFPFTFGGGTKVEIK | binds
BIIB-12-1290 (antibody, V domains shown, IgG) VH: QVQLVQSGAEVKKPGASVKVSCKASGYTFTSYYMHWVRQAPGQGLEWMGIINPGGGSTSYAQKFQGRVTMTRDTSTSTVYMELSSLRSEDTAVYYCAREGGRYVRGMDVWGQGTTVTVSS VL: DIQMTQSPSSVSASVGDRVTITCRASQGISSWLAWYQQKPGKAPKLLIYAASSLQSGVPSRFSGSGSGTDFTLTISSLQPEDFATYYCQQGFSFPFTFGGGTKVEIK | binds
BIIB-12-904 (antibody, V domains shown, IgG) VH: QVQLVESGGGVVQPGRSLRLSCAASGFTFSSYGMHWVRQAPGKGLEWVAVISYDGSNKYYADSVKGRFTISRDNSKNTLYLQMNSLRAEDTAVYYCARGSGRSGYHYWGQGTLVTVSS VL: EIVMTQSPATLSVSPGERATLSCRASQSVSSNLAWYQQKPGQAPRLLIYGASTRATGIPARFSGSGSGTEFTLTISSLQSEDFAVYYCQQAFNWPPTFGGGTKVEIK | binds
BIIB-12-912 (antibody, V domains shown, IgG) VH: QVQLVESGGGVVQPGRSLRLSCAASGFTFSSYGMHWVRQAPGKGLEWVAVISYDGSNKYYADSVKGRFTISRDNSKNTLYLQMNSLRAEDTAVYYCAKSGGRYGYDIWGQGTMVTVSS VL: EIVMTQSPATLSVSPGERATLSCRASQSVSSNLAWYQQKPGQAPRLLIYGASTRATGIPARFSGSGSGTEFTLTISSLQSEDFAVYYCQQFHNFPPTFGGGTKVEIK | binds
BIIB-12-899 (antibody, V domains shown, IgG) VH: QVQLVQSGAEVKKPGASVKVSCKASGYTFTSYYMHWVRQAPGQGLEWMGIINPSGGSTSYAQKFQGRVTMTRDTSTSTVYMELSSLRSEDTAVYYCARGPRTSSPLYFDLWGRGTLVTVSS VL: not shown | binds
BIIB-12-900 (antibody, V domains shown, IgG) VH: QVQLVQSGAEVKKPGASVKVSCKASGYTFTSYYMHWVRQAPGQGLEWMGIINPGGGSTSYAQKFQGRVTMTRDTSTSTVYMELSSLRSEDTAVYYCARSGGMYDRELGMDVWGQGTTVTVSS VL: not shown | binds
BIIB-12-901 (antibody, V domains shown, IgG) VH: QVQLVQSGAEVKKPGASVKVSCKASGYTFTSYYMSWVRQAPGQGLEWMGIINPSGGSTSYAQKFQGRVTMTRDTSTSTVYMELSSLRSEDTAVYYCARSRPRRPSPYGMDVWGQGTTVTVSS VL: EIVLTQSPATLSLSPGERATLSCRASQSVSSYLAWYQQKPGQAPRLLIYDASNRATGIPARFSGSGSGTDFTLTISSLEPEDFAVYYCQQSANFPFTFGGGTKVEIK | binds
BIIB-12-891 (antibody, V domains shown, IgG) VH: QVQLVQSGAEVKKPGASVKVSCKASGYTFTSYYIHWVRQAPGQGLEWMGIINPSGGSTSYAQKFQGRVTMTRDTSTSTVYMELSSLRSEDTAVYYCARASIYRGLGAFDIWGQGTMVTVSS VL: not shown | binds
BIIB-12-892 (antibody, V domains shown, IgG) VH: QVQLVQSGAEVKKPGASVKVSCKASGYTFTSYYMHWVRQAPGQGLEWMGIINPSGGSTSYAQKFQGRVTMTRDTSTSTVYMELSSLRSEDTAVYYCARGLGRRTPTAFDIWGQGTMVTVSS VL: EIVLTQSPATLSLSPGERATLSCRASQSVSSYLAWYQQKPGQAPRLLIYDASNRATGIPARFSGSGSGTDFTLTISSLEPEDFAVYYCQQRLNLPLTFGGGTKVEIK | binds
BIIB-12-902 (antibody, V domains shown, IgG) VH: QVQLVQSGAEVKKPGASVKVSCKASGYTFTSYYMHWVRQAPGQGLEWMGIINPGGGSTSYAQKFQGRVTMTRDTSTSTVYMELSSLRSEDTAVYYCARGGPRRAYSWYFDYWGQGTLVTVSS VL: not shown | binds
BIIB-12-895 (antibody, V domains shown, IgG) VH: QVQLVQSGAEVKKPGASVKVSCKASGYTFTSYYMHWVRQAPGQGLEWMGIINPSGGSTSYAQKFQGRVTMTRDTSTSTVYMELSSLRSEDTAVYYCARGGGYKSRGIDYWGQGTLVTVSS VL: DIQMTQSPSSVSASVGDRVTITCRASQGISSWLAWYQQKPGKAPKLLIYAASSLQSGVPSRFSGSGSGTDFTLTISSLQPEDFATYYCQQASSFPFTFGGGTKVEI | binds
BIIB-12-903 (antibody, V domains shown, IgG) VH: QVQLVQSGAEVKKPGASVKVSCKASGYTFTSYYMHWVRQAPGQGLEWMGIINPSGGSTSYAQKFQGRVTMTRDTSTSTVYMELSSLRSEDTAVYYCARDLGYTAGAFGYWGQGTLVTVSS VL: EIVLTQSPATLSLSPGERATLSCRASQSVSSYLAWYQQKPGQAPRLLIYDASNRATGIPARFSGSGSGTDFTLTISSLEPEDFAVYYCQQRANWPPTFGGGTKVEIK | binds
